# Measurements as given in patent publication US20110206686A1 (published 2011).
# T1: human IL-23 (human, UniProt Q9NPF7 20-189; P29460 23-328)
# T1 construct: Heterodimer of p19 and p40; also called hIL-23; recombinant human IL-23
# T1 sequence 1: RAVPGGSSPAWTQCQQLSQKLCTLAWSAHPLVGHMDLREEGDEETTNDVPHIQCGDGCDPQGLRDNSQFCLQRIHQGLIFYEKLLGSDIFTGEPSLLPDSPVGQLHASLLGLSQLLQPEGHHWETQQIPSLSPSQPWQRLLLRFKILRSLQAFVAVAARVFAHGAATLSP
# T1 sequence 2: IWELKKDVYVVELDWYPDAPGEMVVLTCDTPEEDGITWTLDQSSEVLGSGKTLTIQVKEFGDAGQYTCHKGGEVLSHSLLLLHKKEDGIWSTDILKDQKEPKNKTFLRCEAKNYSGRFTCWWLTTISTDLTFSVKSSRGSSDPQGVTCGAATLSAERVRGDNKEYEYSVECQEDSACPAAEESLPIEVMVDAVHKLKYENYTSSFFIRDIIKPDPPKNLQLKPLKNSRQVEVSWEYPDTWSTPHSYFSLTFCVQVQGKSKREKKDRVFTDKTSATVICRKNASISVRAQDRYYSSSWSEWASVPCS
# Tests used:
# human IL-23 [1] = molecular target: T1, human IL-23; assay: blocking ELISA (Example 9): purified antibody pre-incubated with endogenous human IL-23 (3.5 ng/ml, from stimulated dendritic cells), binding to plate-coated recombinant human IL-23 receptor detected with biotinylated anti-human IL-12; 1% BSA
# Description: (§1) Recombinant human IL-23 Receptor (R&D systems 1400-IR-050) was coated onto 96 well plates at a concentration of 1 μg/ml. Endogenous human IL-23 at 3.5 ng/ml final, was pre incubated for 1 hour with a titration of purified antibody material before being added to the pre-coated plates. Detection was performed with biotinylated anti-human IL12 (R&D systems BAF-219) followed by Streptavidin-HRP (GE Healthcare RPN 4401). This neutralisation ELISA used 1% BSA.
# human IL-23 [2] = molecular target: T1, human IL-23; assay: blocking ELISA, optimised protocol (Example 6): antibody pre-incubated with constant human IL-23, binding to plate-coated human IL-23R Fc chimera detected with biotinylated anti-human IL-12, OD450; purified antibody
# Description: Optimised protocol: Plates were coated with human IL23R Fc chimera at […] (phosphate buffered saline). 50 μl/well of this mixture was incubated overnight at 4° C. The plates were then washed three times with Phosphate Buffered Saline with 0.05% Tween 20 (PBST). Plates were blocked with 4% skim milk powder (Fluka BioChemika #70166) PBST 100 μl/well for a minimum of 1 hour at room temperature. The plates were then washed three times with Phosphate Buffered Saline+0.05% Tween 20 (PBST). Various concentrations of antibody were incubated in a separate plate with a constant concentration of IL-23 for 1 hour at room temperature. 50 ul of each mixture were transferred to the assay plate and incubated at RT for 1 hr. They were then washed three times with Phosphate Buffered Saline+0.05% Tween 20 (PBST). Bound IL23 was detected by anti human IL12 Biotin labelled Ab (R&D systems BAF219) diluted to 100 ng/ml in 4% skim milk powder (Fluka BioChemika #70166) PBST. 50 μl/well of the biotinylated antibody was added and incubated at RT for 1 hour. The plates were then washed three times with Phosphate Buffered Saline+0.05% Tween 20 (PBST). SA HRP (GE healthcare RPN4401) was diluted 1/4000 in 4% skim milk powder (Fluka BioChemika #70166) PBS, 50 μl/well was added to the plates. […] The plate was read at OD450 nm using the SOftmaxPRO versamax plate reader.
# human IL-23 [3] = molecular target: T1, human IL-23; assay: blocking ELISA (Example 10): purified antibody pre-incubated with endogenous human IL-23 (5 ng/ml), binding to plate-coated recombinant human IL-23 receptor detected with biotinylated anti-human IL-12; 25% human pooled AB serum
# Description: as §1, with “5” for “3.5”, “incubated” for “incubated for 1 hour”, “mAbs” for “antibody material”, “BAF-219),” for “BAF-219)”, “25% human pooled AB type serum. 8C92H₆, HC1LC1, and A3M0 retain their activity in human serum and inhibit binding of endogenous human IL-23 binding to human IL-23 receptor.” for “1% BSA.”
binder,measurement,setting,value
"murine mAb 8C9 2H6 (antibody, V domains shown, Murine hybridoma antibody; also called 8C92H6 (mouse parental); murine 8C92H6 mAb) VH: QVQLQQSGAELARPGTSVKLSCKASGYTFTSYGITWVKQRTGQGLEWIGENYPRSGNTYYNEKFKGKATLTADKSSSTAYMELRSLTSEDSAVYFCARCEFISTVVAPYYYALDYWGQGTSVTVSS VL: DIVLTQSPASLAVSLGQKATISCKASKKVTIFGSISALHWYQQKPGQPPKLIYNGAKLESGVSARFSDSGSQNRSPFGNQLSFTLTIDPVEADDAATYYCLQNKEVPYTFGGGTKLEIK",IC50 (read off the curve),human IL-23 [1],~0.05 µg/mL
"A3N2 (antibody, human IgG1, kappa, V domains shown) VH: QVQLVQSGAEVKKPGSSVKVSCKASGYTFTSYGITWVRQAPGQGLEWMGENYPRSGNTYYNEKFKGRVTITADKSTSTAYMELSSLRSEDTAVYYCARSEFISTVVAPYYYALDYWGQGTLVTVSS VL: DIVMTQTPLSLSVTPGQPASISCKASKKVTIFGSISALHWYLQKPGQPPQLIYNGAKLESGVSDRFSDSGSGTDFTLKISRVEAEDVGVYYCLQNKEVPYTFGGGTKVEIKR",IC50 (read off the curve),human IL-23 [2],~900 pM
"A3M0 (antibody, human IgG1, kappa, V domains shown, Humanised, human gamma1 and kappa constant regions; also called A3M0 (humanised)) VH: QVQLVQSGAEVKKPGSSVKVSCKASGYTFTSYGITWVRQAPGQGLEWMGENYPRSGNTYYNEKFKGRVTITADKSTSTAYMELSSLRSEDTAVYYCARSEFISTVVAPYYYALDYWGQGTLVTVSS VL: DIVMTQSPDSLAVSLGERATINCKASKKVTIFGSISALHWYQQKPGQPPKLIYNGAKLESGVPDRFSGSGSGTDFTLTISSLQAEDVAVYYCLQNKEVPYTFGGGTKVEIKR",IC50 (read off the curve),human IL-23 [3],~0.02 µg/mL
